Results from the supplement of paper PMC12042874.
± gives the uncertainty stated by the source.

Test: amyloid nucleation score (Sup35N fusion, yeast selection) (log enrichment); library NNK3; higher = more nucleation; inactive = no reads after selection
Outline: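 The nucleation score equals the log enrichment of output over input reads from DiMSum, centred on the mode score of non-aggregating sequences. It was computed only for sequences with 100 or more input reads. The reads came from Illumina sequencing of plasmid inserts from psi-negative yeast expressing Sup35N fused to peptides of 20 random codons, induced with 100 μM copper sulfate for 24 hours and grown 7 days at 30°C without adenine and uracil.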

For SYMQAWVTNCMSVFSVVMKQ, which amyloid nucleation score is on record?
Its amyloid nucleation score is “inactive”.

For SYMVSLRIVLFFDYR, which amyloid nucleation score is on record?
Its amyloid nucleation score is “inactive”.

For SYNFRDCYQCLRDKVDKICA, which amyloid nucleation score is on record?
The amyloid nucleation score was “inactive”.

With SYNFVNQYVWKEDRNTKVAI as the substance, how does the amyloid nucleation score read?
Its amyloid nucleation score is “inactive”.

With SYPGQLRSPVSV as the substance, how does the amyloid nucleation score read?
The amyloid nucleation score was “inactive”.

For SYRHCNWDAKKVAIGTVVWD, which amyloid nucleation score is on record?
The amyloid nucleation score was “inactive”.

Which amyloid nucleation score does the source give for SYSISDDLVTNHVPQNST here?
Its amyloid nucleation score is “inactive”.

Which amyloid nucleation score does the source give for SYSSGSSNNKS here?
The amyloid nucleation score was “inactive”.

Which amyloid nucleation score does the source give for SYTIVERAIRWYPPT here?
Its amyloid nucleation score is 0.966 ± 0.11.

Which amyloid nucleation score does the source give for SYTKDVV here?
The amyloid nucleation score was “inactive”.

With SYVICGLYIFGCIFRSFTLP as the substance, how does the amyloid nucleation score read?
The amyloid nucleation score was “inactive”.

For SYWLCEVMTLYFFNCFYVLG, which amyloid nucleation score is on record?
The amyloid nucleation score was “inactive”.

With TASCEYFELQPIKNLH as the substance, how does the amyloid nucleation score read?
The amyloid nucleation score was “inactive”.

For TAVLH, which amyloid nucleation score is on record?
Its amyloid nucleation score is “inactive”.

With TCAVKMVRSWCNIPINSFQA as the substance, how does the amyloid nucleation score read?
The amyloid nucleation score was “inactive”.

With TCCYRYYLLILAVSGVFIDT as the substance, how does the amyloid nucleation score read?
Its amyloid nucleation score is “inactive”.

Which amyloid nucleation score does the source give for TCFLRRFYWRYSGFYATAHY here?
Its amyloid nucleation score is “inactive”.

For TCFSYLIFSCGFHSY, which amyloid nucleation score is on record?
The amyloid nucleation score was 0.404 ± 0.64.

Which amyloid nucleation score does the source give for TCHLILRVFGSYNMHGS here?
Its amyloid nucleation score is -0.024 ± 0.96.

With TCLNGLVESRLAGFYHLRGP as the substance, how does the amyloid nucleation score read?
The amyloid nucleation score was “inactive”.

Which amyloid nucleation score does the source give for TCLVGHDKKIDFIV here?
The amyloid nucleation score was “inactive”.

For TCLVSNYVAYIWGNEFFAAS, which amyloid nucleation score is on record?
The amyloid nucleation score was 2.19 ± 0.053.

Which amyloid nucleation score does the source give for TCMYLRDHR here?
Its amyloid nucleation score is -0.337 ± 0.98.

Which amyloid nucleation score does the source give for TCQILRYIRSLLRMLIWCYY here?
Its amyloid nucleation score is -0.418 ± 0.8.

With TCSISIRAGLVLNPCWSDYA as the substance, how does the amyloid nucleation score read?
Its amyloid nucleation score is “inactive”.

Which amyloid nucleation score does the source give for TCSSACFVENRDTNHNGHGG here?
The amyloid nucleation score was “inactive”.

Which amyloid nucleation score does the source give for TCSSINTLLKYMFLSISLFR here?
Its amyloid nucleation score is “inactive”.

With TCVLLCDVFFHGLVLDLKLV as the substance, how does the amyloid nucleation score read?
The amyloid nucleation score was “inactive”.

Which amyloid nucleation score does the source give for TCVMPGVSQLRFGYWVWICR here?
The amyloid nucleation score was “inactive”.

With TCVNLIMKIECFLYYGFLCP as the substance, how does the amyloid nucleation score read?
Its amyloid nucleation score is “inactive”.

Which amyloid nucleation score does the source give for TCWLVFSSFPINKLVLRNKT here?
The amyloid nucleation score was “inactive”.

Which amyloid nucleation score does the source give for TDMIQYKHRLYTIILSNYAR here?
The amyloid nucleation score was “inactive”.

With TDRLGCSFELCAPTCKCAGV as the substance, how does the amyloid nucleation score read?
The amyloid nucleation score was “inactive”.

For TDVISRMMRGGQVLCMCKQC, which amyloid nucleation score is on record?
The amyloid nucleation score was “inactive”.

With TEDGPYTIWH as the substance, how does the amyloid nucleation score read?
The amyloid nucleation score was “inactive”.

With TEGAYRSW as the substance, how does the amyloid nucleation score read?
Its amyloid nucleation score is “inactive”.

With TEPRMLGMCPAVVERMRVEG as the substance, how does the amyloid nucleation score read?
The amyloid nucleation score was “inactive”.

Which amyloid nucleation score does the source give for TEYVMSQNHLKQW here?
The amyloid nucleation score was “inactive”.

Which amyloid nucleation score does the source give for TFAFYLTILMSMFDRYFTWP here?
Its amyloid nucleation score is “inactive”.

With TFCGFKP as the substance, how does the amyloid nucleation score read?
The amyloid nucleation score was “inactive”.

For TFDFPHIRRLEFKFAI, which amyloid nucleation score is on record?
The amyloid nucleation score was “inactive”.

For TFKPDQYRFVHEYSTMRVLM, which amyloid nucleation score is on record?
The amyloid nucleation score was “inactive”.

For TFLYTFWVLMACSELV, which amyloid nucleation score is on record?
Its amyloid nucleation score is “inactive”.

With TFRICADMCCTGVR as the substance, how does the amyloid nucleation score read?
Its amyloid nucleation score is 1.45 ± 0.11.

For TFRVNMCNPLMLGYVLFWLD, which amyloid nucleation score is on record?
Its amyloid nucleation score is “inactive”.

With TFYDNLSDRLFSWS as the substance, how does the amyloid nucleation score read?
Its amyloid nucleation score is “inactive”.

Which amyloid nucleation score does the source give for TGFLGWDACGALRIFLTVRW here?
The amyloid nucleation score was “inactive”.

For TGHSQSLVVLTCWCVLFHAR, which amyloid nucleation score is on record?
The amyloid nucleation score was “inactive”.

For TGKYRAVVLAC, which amyloid nucleation score is on record?
The amyloid nucleation score was “inactive”.

With TGMNNFMKCLGYMSAHVRLI as the substance, how does the amyloid nucleation score read?
Its amyloid nucleation score is “inactive”.

For TGPMGI, which amyloid nucleation score is on record?
Its amyloid nucleation score is “inactive”.

For TGQLSSQPIIQISREPIAFT, which amyloid nucleation score is on record?
The amyloid nucleation score was “inactive”.

With TGSLWRNHCLVVPQVRYGRK as the substance, how does the amyloid nucleation score read?
Its amyloid nucleation score is -0.017 ± 0.5.

Which amyloid nucleation score does the source give for TGSVFVKDGTLWPTCVDLIG here?
Its amyloid nucleation score is “inactive”.

For TGTFDRWDPVTAGLPTGLGE, which amyloid nucleation score is on record?
The amyloid nucleation score was “inactive”.

Which amyloid nucleation score does the source give for TGVKQCSTFTVFIFAGPVEI here?
Its amyloid nucleation score is 1.74 ± 0.1.

Which amyloid nucleation score does the source give for TGYYWFLFWNMWDWHVCGSS here?
Its amyloid nucleation score is “inactive”.

Which amyloid nucleation score does the source give for THNVSKKWLVGVMCINSGRH here?
The amyloid nucleation score was 1.59 ± 0.099.

For TIATLRF, which amyloid nucleation score is on record?
Its amyloid nucleation score is “inactive”.

For TICCSDLVVEDHG, which amyloid nucleation score is on record?
The amyloid nucleation score was “inactive”.

Which amyloid nucleation score does the source give for TICPTFPVGGMNISNGSYTM here?
Its amyloid nucleation score is “inactive”.

Which amyloid nucleation score does the source give for TIEIGSLYTITM here?
The amyloid nucleation score was -0.251 ± 0.45.

For TIFEAA, which amyloid nucleation score is on record?
Its amyloid nucleation score is “inactive”.

Which amyloid nucleation score does the source give for TIFFMYWLSPGFSPPI here?
The amyloid nucleation score was 0.148 ± 0.39.

For TIFKRSPACYYNGIHLWVTF, which amyloid nucleation score is on record?
The amyloid nucleation score was “inactive”.

Which amyloid nucleation score does the source give for TIGDACFVGKEAWAFANWEY here?
The amyloid nucleation score was “inactive”.

For TIIFRSYVELVDELWLDAAL, which amyloid nucleation score is on record?
Its amyloid nucleation score is “inactive”.

For TILGDFVFVFILKVCFTYHR, which amyloid nucleation score is on record?
Its amyloid nucleation score is -0.806 ± 1.3.

Which amyloid nucleation score does the source give for TISFGMMHLAIDWVIVN here?
The amyloid nucleation score was “inactive”.

With TITLFSSWGSV as the substance, how does the amyloid nucleation score read?
The amyloid nucleation score was 0.612 ± 0.22.

Which amyloid nucleation score does the source give for TIVRY here?
The amyloid nucleation score was 1.1 ± 0.21.

For TKAYGCIHTDRRDSQLKFSA, which amyloid nucleation score is on record?
Its amyloid nucleation score is “inactive”.

With TKCLLFFNRGCR as the substance, how does the amyloid nucleation score read?
Its amyloid nucleation score is 1.1 ± 0.14.

With TKIEVNS as the substance, how does the amyloid nucleation score read?
Its amyloid nucleation score is “inactive”.

Which amyloid nucleation score does the source give for TKLWFCNFCYSLDAGIGKCV here?
Its amyloid nucleation score is 2.37 ± 0.077.

For TKVFS, which amyloid nucleation score is on record?
The amyloid nucleation score was “inactive”.

Which amyloid nucleation score does the source give for TLAIGLIDEFRLHA here?
The amyloid nucleation score was 1.09 ± 0.13.

For TLDFGF, which amyloid nucleation score is on record?
Its amyloid nucleation score is “inactive”.

With TLIQFSLMCVYFSDFLPKAF as the substance, how does the amyloid nucleation score read?
Its amyloid nucleation score is “inactive”.

Which amyloid nucleation score does the source give for TLLFDPMLNA here?
Its amyloid nucleation score is “inactive”.

For TLNMEFIQFTRSFGKSISPC, which amyloid nucleation score is on record?
The amyloid nucleation score was “inactive”.

Which amyloid nucleation score does the source give for TLSHIGGIEGFINGCLSVGP here?
Its amyloid nucleation score is “inactive”.

For TLSMSWDLTKHFAVVTESRG, which amyloid nucleation score is on record?
Its amyloid nucleation score is “inactive”.

With TLSRFPLGNCF as the substance, how does the amyloid nucleation score read?
Its amyloid nucleation score is “inactive”.

For TLSYVCTNAGGSVFMTCLFF, which amyloid nucleation score is on record?
The amyloid nucleation score was -0.104 ± 0.58.

For TLTSYEKIPSMSLSG, which amyloid nucleation score is on record?
Its amyloid nucleation score is “inactive”.

With TLVGTFYSMQRSDRIWR as the substance, how does the amyloid nucleation score read?
Its amyloid nucleation score is 0.475 ± 0.69.

Which amyloid nucleation score does the source give for TLYVIGLPFDLALMGI here?
The amyloid nucleation score was “inactive”.

With TMDTYSVPPHNFGMLCYGL as the substance, how does the amyloid nucleation score read?
The amyloid nucleation score was “inactive”.

Which amyloid nucleation score does the source give for TMIFYYRYRLVCDGLFFCGT here?
Its amyloid nucleation score is 0.034 ± 0.48.

For TMLVFGIVNTLVVDNLRSSI, which amyloid nucleation score is on record?
The amyloid nucleation score was 2.01 ± 0.094.

For TMMACEANWYRSKNIEFVYA, which amyloid nucleation score is on record?
Its amyloid nucleation score is “inactive”.

With TMYSLD as the substance, how does the amyloid nucleation score read?
The amyloid nucleation score was “inactive”.

For TNANRIGMGYDMNNYSTHYR, which amyloid nucleation score is on record?
The amyloid nucleation score was “inactive”.

For TNCCTCVMEASGNEGIGTLN, which amyloid nucleation score is on record?
The amyloid nucleation score was 0.367 ± 0.23.

With TNFAYMQREGS as the substance, how does the amyloid nucleation score read?
Its amyloid nucleation score is “inactive”.

For TNITWYTRVLNGLYYTM, which amyloid nucleation score is on record?
The amyloid nucleation score was “inactive”.

For TNKASLFSPAEHIYGKS, which amyloid nucleation score is on record?
The amyloid nucleation score was “inactive”.

With TNLLRTGNASSWMFKRGVEC as the substance, how does the amyloid nucleation score read?
The amyloid nucleation score was “inactive”.

With TNNINALMLAIPINEYVVGH as the substance, how does the amyloid nucleation score read?
The amyloid nucleation score was “inactive”.

Which amyloid nucleation score does the source give for TNNQNSDRFGVTVPSLTFVR here?
Its amyloid nucleation score is “inactive”.

For TNPMYK, which amyloid nucleation score is on record?
Its amyloid nucleation score is “inactive”.

With TNPTVYWDRGMVGCKKLRAH as the substance, how does the amyloid nucleation score read?
Its amyloid nucleation score is “inactive”.

For TNRFIFPFLNVTHAVLFIFT, which amyloid nucleation score is on record?
The amyloid nucleation score was 1.02 ± 0.19.

Which amyloid nucleation score does the source give for TNTYF here?
Its amyloid nucleation score is “inactive”.

For TNVSPLTPNT, which amyloid nucleation score is on record?
The amyloid nucleation score was “inactive”.

For TPEVISSV, which amyloid nucleation score is on record?
Its amyloid nucleation score is “inactive”.

Which amyloid nucleation score does the source give for TPGSYLGYCIPRFIGLQYDP here?
Its amyloid nucleation score is “inactive”.

With TPLESGLSI as the substance, how does the amyloid nucleation score read?
The amyloid nucleation score was “inactive”.

For TPLFHWKNQVSRSFLVWNDL, which amyloid nucleation score is on record?
Its amyloid nucleation score is “inactive”.

With TPLGLEWYSSREWGISNLWT as the substance, how does the amyloid nucleation score read?
The amyloid nucleation score was “inactive”.

For TPSSCSTLCQTDMQDQWRVG, which amyloid nucleation score is on record?
Its amyloid nucleation score is “inactive”.

With TPYGRIFWADDIFNSVAICL as the substance, how does the amyloid nucleation score read?
The amyloid nucleation score was “inactive”.

With TQDIKLFHRMDFQLSIKMNS as the substance, how does the amyloid nucleation score read?
The amyloid nucleation score was “inactive”.

Which amyloid nucleation score does the source give for TQLLMEFSTVSALDITPCDG here?
Its amyloid nucleation score is “inactive”.

With TQNGGVNVIRFYLCDFLSGL as the substance, how does the amyloid nucleation score read?
The amyloid nucleation score was 2.87 ± 0.067.

For TRFLATECITSDEVVYWVTM, which amyloid nucleation score is on record?
The amyloid nucleation score was “inactive”.

Which amyloid nucleation score does the source give for TRLDGHTYMFTL here?
Its amyloid nucleation score is “inactive”.
